In patent US20260139240A1:

Columns and labels:
[1] = biological target: Human α1-acid glycoprotein (AGP) (human) (UniProt P02763); assay: SPR (Biacore T100), SubB immobilised
[2] = biological target: Human α1-acid glycoprotein (AGP) (human) (UniProt P02763); assay: SPR (Biacore […]), […], single cycle kinetics

With “Wild type SubB (subtilase cytotoxin B subunit) (from UniProt Q6EZC3 24-141) (other; other documents disagree on this pair)” the fold reduced binding affinity compared to bovine AGP [1] was 13 fold and the Kd [2] was 2120 nM.
